Laboratory results published in a protein production outcome set (Wang et al. 2014).

experiment: label from the status in PepcDB records
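Note: failed if final PepcDB status was selected cloned or expressed and not failed if soluble or beyond.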

Q: For “MKIKHWDRWLASLKDDDYLKNIEAIKLYLAVMSIYEPDLLDEYMIDDDFHPMISRLKNVTLDVTSARFKELYITESKMNYARDELDGAMIISKTLTKSDIVGNVALPKAQVMSVLTRMNGVTDEGLDNGFEVQVHDIMEDDLYTVTLKRIDDMKYYFGTGWSTMKHSLDLVEGDVQKLYWDQFENKFIVLNFQHKTMGIMIPV”, which protein production is on record?
A: failed

Q: For “MKIKILAVLAVVTVIVVSMFMREKREDPSSLVMMNVEALATGEGTSPAICVGTGSVVCPNDGSKVLYYR”, which protein production is on record?
A: failed

Q: Which protein production does the source give for “MKILIDGDACPKAVLQICLKKGRQYGIPVWTVASFNHEIASDHHIVVGNAPQETDLKVVNLSEAGDIIVTQDIGLAAMVLGKGARALSPTGKEYRPESIANLLEERELKAKYRRSLEHHHHHH” here?
A: not failed

Q: For “MKILLIGGSGNIGRAIAAELSGRHEIIAAGRHHGDVRVDIEDEQSIAAMYRQLPRLDAVAVATGGRNGHVGPLAEMNAERYRVGLDAKLMGQVNLVLRGLDKVADGGSFTLVGGAWQPQAIVPLLSNVYMANAALEGFVNAAAVELPRRLRINLVSPLLLAESEAEYGPLFRGVPLVEARQVARAYSLSIEGAQTGQTYRLGRLDLEHHHHHH”, which protein production is on record?
A: not failed

Q: Which protein production does the source give for “MKILTQSLPNSSAAYLQGYLRENTDSSVTYPTVIIVPGGSYTHIPERQAEDLALAWVARGYQAFFLRYSFISEKTPLLPNPVIELAQSVAAIHAHATTWHVDLRRLAVAGFSVGGHITALFNDWWSEADFNQQAHTTPEQLKVQAVILGYPVISPDLGFPTDAATLATWSTTPKKIAADQHVTAANAPTFIWVTANDPLVPVQNALAYAQASLTHGVDTELHVFHNGPHGLALANSVTAWKPGTDLPHVAHWLDLATEWLQDLKLEHHHHHH” here?
A: not failed

Q: Which protein production does the source give for “MKILVVSGFLGAGKTTFIRTLAERTKKDFAVMENEYGAVNVDGDLLEQTNDLNIWELTEGCICCSMQNDFATSILTIANTVDPEYLIVEPTGVGMLSKIIENIQKIEYERITLLEPLTILDGTMYDRCMFEFSEICEDQIQSAGRILVSKMEYAAENERCSLKQKLIALNPEAEICVSHYTEQGDDWWASLLTSYLDKEIPMKEERELDLENLGLTEASLQSEQELILFLQGVVSGVFGDICRAKGYLPAGNGWLRFDVTDRTYSVTGIDTMPEAKAIFIGRQLKRNWLREVLQKELYVEVSKRAIRPMRKRSEVLEHHHHHH” here?
A: failed

Q: With “MKIMGFYSQVILPRLLDWSLSDPTLATYRQELLTDVTGEVLEIGFGTGLNLAYYPSHIHKITTVDVNPGMNTIAQKRIDDSGIKVQQLLLSGENLPMADNTFDSVVSTWTLCSIANVEQALQEVYRVLKPGGKFFFLEHGLSNKPNVQVWQNRLTPIQKVLADGCHLNRNIQQLVEQSFDHVELKRFTPENFPDLMAHFYKGCATKKSILEHHHHHH” as the sequence, how does the protein production read?
A: not failed

Q: For “MKIPIILTLMLFSLGFIFGFISINNLSKINDKDLSNYIPNIQFNFPSILTNNLKVIFLMLAGSITFGLSTFINLIFNGFNVGVLIGSISLTNEPLKLITALILPHGIFEISAMLISAVAGFKIPYKVTLYLLDKKEKPLTEEDIKDFLKLSLISIILIVIAAFIEVYITPKIATYLLT”, which protein production is on record?
A: failed

Q: With “MKIQCDVCEKAPATLICCADEAALCAKCDVEVHAANKLASKHQRLFLDSLSTKFPPCDICLEKAAFIFCVEDRALLCRDCDEATHAPNTRSANHQRFLATGIRVALSSTSCNQEVEKNHFDPSNQQSLSKPPTQQPAAPSPLWATDEFFSYSDLDCSNKKEQLDLGELDWLAEMGLFGDQPDQEALPVAEVPELSFSHLAHAHSYNRPMKSNVPNKKQRLEYRYDDEEEHFLVPDLG” as the sequence, how does the protein production read?
A: not failed

Q: With “MKIRNDGPALAGWNVAWEMPDGQEITNSWNGRFVQTGAHVDVGNLDWNKDIPAGSNIEFGFNGSHTGRNRTPASLSVNGVKCTMAVAAPPPSPRPAACEATYQISDQWNTGFTANVRIRNDGDPLAGWKVVWDMPDGQRVTNSWNGRFTQSGSHVEVGHLDWNRDIATGSNIEFGFNGSHAGANRAPSSLSLNGVACALVTVAPSPTPAPTATPSPIPTPTPSPAPTASPSPAPTPTPAPTSSPSPTPAPTGPCQADYQVTAQWNDGFTANVKVRNNGTALDGWTVAWTMPSGQTVTGMWNGQYVQTGPQVAVTPADWNRQIASGASIEFGFNGSHSGSNAVPGVLTLNGAACATTTGGGTPTPTPVPVAPGAPAGLSATVADNAVVNLVWTAADAFAQGFRIERRTAAGVDWALVAETAAGVPSFGDGTVAMGNDYEYRVYAFNAVGNSPPATASASLPTLLKYGESQYQKQGCASCHGKDGKGGFTNKPLVHFTADQLATLTEIIRVRMPPSKPANCVSNCAAGTAKYIIEVLAAAASGGGGGGGNACAGSPPPGGRALRLLTRQEYQNTVNDLLGLSENLVHLLPEENRVDGFDNNVATNLVTSIRLEAFLTQAEALAAKAVQQNWNALLPCTQQDAACARRFVEAFGKRAYRRPLTPEEADAYAALFGQGSFREGVEATITHMLVSPNFLYRSELGEVQADGTYKLTPYETASALSYLFLGSLPDGELVSAADQNLLDTPDQRIAHASRLLSLPRSRNRVGHFVGQWLLGTSPYTLPEKDQAVYPRYDAAVRSAMSEELIGFFDHVAFESTQSFPELFTANYVVVDDTLADYYGLGRPGGSGFAPVTVSDGTRTGILTLGAVLSRYANSNESHPFKRGGFLYKRLLCRDLPLPANAGFIQAPQPDPNATTRQRFEFHSKSNTSCYGCHQYLDGPGFGFENYDGAGIFRASENGQAIDASGVLRGLETFTPTEELSFTDLPDLSRKIAASPTAAQCAARQYYRFATGRREASSDSCALDSFLQTYSANGHNLQTMLLGIVNAPGFTVRRADQ” as the sequence, how does the protein production read?
A: failed

Q: With “MKISAVVVTFNRKKLLLECLNALRNQTYPLDAIFIIDGPSTDGTPEALLECGYIKELPPKKGNWSWETKNVIYSPINNKPIKVYYVRLYKDVGGSGGFYEGVKRAYEEGYNWIWLMDDDAEPREDALEKLIRYMNLPGVIALAPTVIRPTGEISKPHRGILCFKKIFPMIQIPLDESKYKSNQPVQIDFVSFVGPLIKRDAIKIVGFPKKEFFIHHDDVEYSIRLRTVGKIYLIPDSVIIHKENIKKTSLIKKRFLGKTIYRIPYNKLWKTYYGTRNLTYLGRIYSKSKFKFYFKLLKRWAVSVGAIILFDDHKIKRIQFITSAYLDGLRGKFDNEKPKRILYGGKKELEHHHHHH” as the sequence, how does the protein production read?
A: not failed

Q: With “MKISQLLSLDTIKLNLAASNKNEVIDQLVDVLWDAGKLTDKNLYKEEILKRESLSSTGIGERIAIPHAKTKAVKNASLALGIYKYGVDYDSLDGEPVNIVFMIAAPAGANDEHLETLSRLSVLLMNPDFKNGLLNAKTPEEVISLLDKFEENEESDETQASNEAENNSNKKYILAVTACPTGIAHTYMAADSLNKTAKEMDVHIKVETNGSTGVKNRLTQEDIDKADGIIVAADKQVEMARFNGKKVVIVPVVQAMKRPQELINEALSGSAPVYSHSGDSSNQSSGKTERRGFYKHLMNGVSNMLPFVVGGGILIAISFMFGIHSAEINDPTFNPIAKLLKDIGGGNAFFLMIPVLAGFIGSSIADRPGFAPAMVGGLIAANSGSGFLGGLIAGFLGGYVVVLLKKIFSKLPQSLEGIKPVLLYPLFGILITGALMYLVIVGPVTALNNNIAIWLQNMGTGNLVLLGIVLGGMMAIDMGGPINKAAFTFGIAMIASGNYYPHAAIMAGGMVPPLATALATTFFKNKFTKDERDAGTTNYIMGLTFITEGAIPFAAADPFRVIPACVIGSAIAGGLSMVFKIGLPAPHGGIFVVPVVEGNPLLYLLSILVGSIVAALIIGFLKKPVNEINK” as the sequence, how does the protein production read?
A: failed

Q: With “MKITILSGGTGTPKLIQGFKEILPNEDISVIVNTGEDTYIGDIYLSPDIDTVLYTFSNLINDETWYGLKGDTFFCHEQLKNFGFDEVLRIGDKDRALKMHKTSLLKKGVPMSEIVDIERKSLSINSKIYPMSDEKIESKVLIEENNEKILLKFHDFWVSRRGNAKVLDIFYENSNYAKAADGVLKAIEESDFVIIGPSNPITSIGPILSISEIKDALKEKLVFAVSPIVGENPVSGPAGTLMHAKGYPVNAVGVYEYYKDIVDVLVLDNSDINKKKEMNCEVLYANTIMKTIDDKITLARNILDYYKSR” as the sequence, how does the protein production read?
A: failed

Q: Which protein production does the source give for “MKITMRVSVPLSPRQAASQPVPSHRCLHVWPFIRPSLLRPELTMPSGCRCLNLVCLLCILGATSQPARADDCSSHCDLAHGCCAPDGSCRCDPGWEGLHCERCVRMPGCQHGTCHQPWQCICHSGWAGKFCDKDEHICTSQSPCQNGGQCVYDGGGEYHCVCLPGFHGRGCERKAGPCEQAGFPCRNGGQCQDNQGFALNFTCRCLAGFMGAHCEVNVDDCLMRPCANGATCIDGINRFSCLCPEGFAGRFCTINLDDCASRPCQRGARCRDRVHDFDCLCPSGYGGKTCELVLPAPEPASVGTPQMPTSAVVVPATGPAPHSAGAGLLRISVKEVVRRQESGLGESSLVALVVFGSLTAALVLATVLLTLRAWRRGICPTGPCCYPAPHYAPARQDQECQVSMLPAGFPLSPDLPPEPGKTTAL” here?
A: failed

Q: With “MKKAIYLLILCIFGLFSVYFTYAENISDISNTTSKNISSSNISHNNIIYSNINYNEILYIIVKNNTAYVKDVINGTNNPYHIKSAGIILYEKIYGYNYSNLLYRNSSNSLIFYYNFSVDKINYTINITIPQIEDYVGSLGGPIRMRIPPNNVKIIIVAENKLAETNGKYILEYNKTDKKVISLIYLDNVSSICNIYYTKFFNSSEFYGYAVANVTSITENRTSYTIKNPKGTFTFDRKYNVFVSNKTAYLKEPYLYVKLYNSTIDDIIILENNKISENSTKFMSNYLLSFIGIIIGFGIIGLAIYLSKRGRK” as the sequence, how does the protein production read?
A: failed

Q: Which protein production does the source give for “MKKAKLIFKDNTPFSLDFDDFYFNFKDGLNESKFVYTHSFEWKNQENFIIAESGFGIGLNFFLTLKRFLETTPSKRPKKLFYISVEAFYIEKEQLREIYQKLEFYEEFKELLEQFLKFYPKAKEGIYRFYFEDCFLDLVFEDIAVLKELDFKADVWYLDGFSPNKNSQMFDENLIFEVARLSKKNTQICTFSSASFLQKNLKKYGFRVEKTKGFRKREMIKAYLENELEFKDKEAYFSRTFSSLKNKKVAIIGAGISSAVLAYELSLRGFEIDIFEKHLELGKGASGNESGILSSLILKPKVNLGEFSELSFIEASRFYRQILDLEFKGVVEFAHNDLMQERFDTQRENVLFKISKNQAFLEEGGVIFPKKLVKNLFEKSKACIYFNHEFQAYKFENGCFSLKFKNDVVKSDYAVLIYAMGADAKDFVFYDEMKLSKVRGQVTHLKPFLDTPFPLSSKAYICPVKDDLQVIGASYDRLNASLESKEEDDKQNIENIADFMDKNTKLEIIGSKVGFRSYSSDRFMIVGNAYDEAFYKEEYKALLWTKNKEQKPAKMSCNLYFNFAHGSRGFSTSVLAARYLCALINNEPLCLEKKYIHAIHPARFLIRKLKKGL” here?
A: failed

Q: Which protein production does the source give for “MKKATMLTYLEEQLEKHLGDYEVGLDWDRKNHTIEVIVRLYAENNEQVAIDDVDGTLSEEEFIEFEDGLLFYNPQKSVVDDEEYLVTIPYEGKKGLRKAVLDGFIHYLKVVLDEGQSDLLDFLSDETAEVFELHWEPADFEAMIKKVAETEKEQWIAYPSY” here?
A: not failed

Q: Which protein production does the source give for “MKKAVFSTLVIGLLSFQAHADYVAQPQSIAAQAARYSVMSIPELTQAAKSGQAGAQFYLGAHYQHGKNIPKDDKQAFTWFKAAADQGLSPAQLNVGRMYADGVGVAKNEAMARKYFEKAASNGDNRASYNLAMMEEQKKNYQGAYQWYELSTRDGMLDNKVINMSQSKKTALAANLTQDQIRQAVDRADKWIQAQ” here?
A: failed

Q: Which protein production does the source give for “MKKDFASVTPAGKKTSVRWFIVFMLFLVTSINYADRATLSITGDSVQHDLGLDSVAMGYVFSAFGWAYVIGQLPGGWLLDRFGSKTIIALSIFFWSFFTLLQGAIGFFSAGTAIILLFALRFLVGLSEAPSFPGNGRVVASWFPSSERGTASAFFNSAQYFAIVIFPPLMGWLTHSFGWHSVFVVMGIAGILLAVIWLKTVYEPKKHPKVNEAELAYIEQGGGLISMDDSKSKQETESKWPYIKQLLTNRMLIGVYIAQYCITTLTYFFLTWFPVYLVQARGMSILEAGFVASLPALCGFAGGVLGGIVSDILLKKGRSLTFARKVPIIAGMLLSCSMIVCNYTDSAWLVVVIMSLAFFGKGFGALGWAVVSDTSPKECAGLSGGLFNTFGNIASITTPIIIGYIVNATGSFNGALVFVGANAIAAILSYLLLVGPIKRVVLKKQEQDPDQSLPV” here?
A: failed
